± gives the uncertainty stated by the source.
B1: POU domain, class 3, transcription factor 4, residues 280 to 335; numbered along this chain, P49335 (parent)
chain: KKRTSIEVSVKGVLETHFLKCPKPAAQEISSLADSLQLEKEVVRVWFCNRRQKEKR

Variants of: B1
Test: abundance fitness (aPCA) (normalised: wild type 0, dead -1); higher = more abundant; growth selection in yeast, the domain comes from the species named
Conditions: Homo sapiens

Q: Which abundance fitness does the source give for KKRTSIEVSVKGVLETHFLKCPKPAAQEISSLADSLQLEKEVVRVWFCNRRQKEKL [R56L] here?
A: -0.075 ± 0.19

Q: Which abundance fitness does the source give for KKRTSIEVSVKGVLETHFLKMPKPAAQEISSLADSLQLEKEVVRVWFCNRRQKEKR [C21M] here?
A: -0.723 ± 0.21

Q: For KKRTSIEVSVKGVLETHFLKLPKPAAQEISSLADSLQLEKEVVRVWFCNRRQKEKR [C21L], which abundance fitness is on record?
A: -0.419 ± 0.12

Q: With KKRTSIEVSVKGVLETHFLKVPKPAAQEISSLADSLQLEKEVVRVWFCNRRQKEKR [C21V] as the variant, how does the abundance fitness read?
A: -0.781 ± 0.16

Q: For KKRTSIEVSVKGVLETHFLKCPKPAAQEISSLADSLQLGKEVVRVWFCNRRQKEKR [E39G], which abundance fitness is on record?
A: -0.686 ± 0.16

Q: For KKRTSIEVSVKGVLETHFLKCPKPAAQEISSLADFLQLEKEVVRVWFCNRRQKEKR [S35F], which abundance fitness is on record?
A: -0.249 ± 0.14

Q: With KKRTSIEVSVKGVLETHFLKCPKPAAQEISSLADSLQLELEVVRVWFCNRRQKEKR [K40L] as the variant, how does the abundance fitness read?
A: -0.418 ± 0.14

Q: Which abundance fitness does the source give for KKRTSIEVSVKGVLETHFLKCPKPAAQEISSLADSLQLEEEVVRVWFCNRRQKEKR [K40E] here?
A: 0.192 ± 0.23

Q: For KKRTSIEVSVKGVLETHFLKCPKPAAQEISSLADSLQLEDEVVRVWFCNRRQKEKR [K40D], which abundance fitness is on record?
A: -0.287 ± 0.27

Q: Which abundance fitness does the source give for KKRTSIEVSVKGVLETHFLKCPVPAAQEISSLADSLQLEKEVVRVWFCNRRQKEKR [K23V] here?
A: -0.225 ± 0.11

Q: With KKRTSIEVSVKGVLETHFLKCPNPAAQEISSLADSLQLEKEVVRVWFCNRRQKEKR [K23N] as the variant, how does the abundance fitness read?
A: 0.559 ± 0.18

Q: Which abundance fitness does the source give for KKRTSIEVSVKGVLETHFLKCPKPIAQEISSLADSLQLEKEVVRVWFCNRRQKEKR [A25I] here?
A: -0.297 ± 0.22

Q: With KKRTSIEVSVKGVLETHFLKCPKPPAQEISSLADSLQLEKEVVRVWFCNRRQKEKR [A25P] as the variant, how does the abundance fitness read?
A: -0.31 ± 0.2

Q: With KKRTSIEVSVKGVLETHFLKCPKPSAQEISSLADSLQLEKEVVRVWFCNRRQKEKR [A25S] as the variant, how does the abundance fitness read?
A: 0.457 ± 0.1

Q: For KKRTSIEVSVKGVLETHFLKCPKPAAQEISSLADSLQLEKEVVRVWFCNRRQREKR [K53R], which abundance fitness is on record?
A: -0.171 ± 0.15

Q: Which abundance fitness does the source give for KKRTSIEVSVKGVLETHFLKCPKPAAQEISSLADSLQLEKEVVIVWFCNRRQKEKR [R44I] here?
A: -1.01 ± 0.36

Q: Which abundance fitness does the source give for KKRTSIWVSVKGVLETHFLKCPKPAAQEISSLADSLQLEKEVVRVWFCNRRQKEKR [E7W] here?
A: -0.014 ± 0.26

Q: For KKRTSIAVSVKGVLETHFLKCPKPAAQEISSLADSLQLEKEVVRVWFCNRRQKEKR [E7A], which abundance fitness is on record?
A: -0.082 ± 0.11

Q: For KKRTSIEVSVKGVLETHFLKCPKPAAQEISSLAPSLQLEKEVVRVWFCNRRQKEKR [D34P], which abundance fitness is on record?
A: -0.843 ± 0.29

Q: For KKRTSIEVSVKGVLETHFLKCPKPAAQEISSLAESLQLEKEVVRVWFCNRRQKEKR [D34E], which abundance fitness is on record?
A: -0.172 ± 0.18

Q: For KKRTSIEVSVKGVLETHFLKCPKPAAQEISSLAISLQLEKEVVRVWFCNRRQKEKR [D34I], which abundance fitness is on record?
A: -0.717 ± 0.32

Q: With KKRTSIEVSIKGVLETHFLKCPKPAAQEISSLADSLQLEKEVVRVWFCNRRQKEKR [V10I] as the variant, how does the abundance fitness read?
A: 0.08 ± 0.2

Q: With KKRTSIEVSHKGVLETHFLKCPKPAAQEISSLADSLQLEKEVVRVWFCNRRQKEKR [V10H] as the variant, how does the abundance fitness read?
A: -0.133 ± 0.26

Q: With KKRTSIEMSVKGVLETHFLKCPKPAAQEISSLADSLQLEKEVVRVWFCNRRQKEKR [V8M] as the variant, how does the abundance fitness read?
A: 0.527 ± 0.22

Q: Which abundance fitness does the source give for KKRTSIEPSVKGVLETHFLKCPKPAAQEISSLADSLQLEKEVVRVWFCNRRQKEKR [V8P] here?
A: 0.736 ± 0.24

Q: With KKRTSIEHSVKGVLETHFLKCPKPAAQEISSLADSLQLEKEVVRVWFCNRRQKEKR [V8H] as the variant, how does the abundance fitness read?
A: 0.07 ± 0.28

Q: With KKRTSIETSVKGVLETHFLKCPKPAAQEISSLADSLQLEKEVVRVWFCNRRQKEKR [V8T] as the variant, how does the abundance fitness read?
A: 0.307 ± 0.21

Q: Which abundance fitness does the source give for KKRTSIEVSVKGVLETHFLKCPKPAAQEISSLADSLQLEKEVVRVWFCNQRQKEKR [R50Q] here?
A: -0.88 ± 0.41

Q: Which abundance fitness does the source give for KKRTSIEVSVKGVLETHFLKCPKPAAQEISSLYDSLQLEKEVVRVWFCNRRQKEKR [A33Y] here?
A: -0.917 ± 0.39

Q: For KKRTSIEVSVKGVLETHFLKCPKPAAQEISSLLDSLQLEKEVVRVWFCNRRQKEKR [A33L], which abundance fitness is on record?
A: -0.598 ± 0.13

Q: With KKRTSIEVSVKGVLETHFLKCPKPAAQEISSLKDSLQLEKEVVRVWFCNRRQKEKR [A33K] as the variant, how does the abundance fitness read?
A: -0.959 ± 0.41

Q: For KKRTSIEVSVKGVLETHFLKCPKPAAQEISSLFDSLQLEKEVVRVWFCNRRQKEKR [A33F], which abundance fitness is on record?
A: -0.773 ± 0.3

Q: With KKRTSIEVSVKGVCETHFLKCPKPAAQEISSLADSLQLEKEVVRVWFCNRRQKEKR [L14C] as the variant, how does the abundance fitness read?
A: -0.563 ± 0.15

Q: With KKRTSIEVSVKGVHETHFLKCPKPAAQEISSLADSLQLEKEVVRVWFCNRRQKEKR [L14H] as the variant, how does the abundance fitness read?
A: -0.983 ± 0.27

Q: Which abundance fitness does the source give for KKRTSIEVSVKGVLETHFLKCPKPAAQEISSLADSLQLEKEVVRVWFCERRQKEKR [N49E] here?
A: 0.117 ± 0.2

Q: Which abundance fitness does the source give for KKRTSIEVSVKGVLETHFLKCPKPAAQEISSLADSLQLEKEVVRVWFCHRRQKEKR [N49H] here?
A: -0.46 ± 0.2

Q: For KKRTSIEVSVKGVLETHFLKCPKPAAQEISSLADSLQLEKEVVRVWFCCRRQKEKR [N49C], which abundance fitness is on record?
A: -0.686 ± 0.28

Q: With KKRTSIEVSVKGVLETHFLKCPKPAAQEISSLADSLQLEKEVVRVWFCMRRQKEKR [N49M] as the variant, how does the abundance fitness read?
A: -0.304 ± 0.22

Q: With KKRTSIEVSVKGVLETHFLKCPKPAAQEISSLADSLQLEKEVVRVWFCPRRQKEKR [N49P] as the variant, how does the abundance fitness read?
A: -0.724 ± 0.21

Q: For KKRTSIEVSVKGVLETCFLKCPKPAAQEISSLADSLQLEKEVVRVWFCNRRQKEKR [H17C], which abundance fitness is on record?
A: -0.497 ± 0.2

Q: Which abundance fitness does the source give for KKRTSIEVSVKGVLETWFLKCPKPAAQEISSLADSLQLEKEVVRVWFCNRRQKEKR [H17W] here?
A: -0.159 ± 0.15

Q: For KKRTSIEVSVKGVLETGFLKCPKPAAQEISSLADSLQLEKEVVRVWFCNRRQKEKR [H17G], which abundance fitness is on record?
A: -0.662 ± 0.16

Q: For KKRTSIEVSVKGVLETHFLKCPKPAAQEISSWADSLQLEKEVVRVWFCNRRQKEKR [L32W], which abundance fitness is on record?
A: -0.614 ± 0.28

Q: Which abundance fitness does the source give for KKRTSIEVSVKGVLETHFLKCPKPAAQEISSHADSLQLEKEVVRVWFCNRRQKEKR [L32H] here?
A: -0.86 ± 0.35

Q: Which abundance fitness does the source give for KKRTSIEVSVKGVLETHFLKCPKPAAQEISSNADSLQLEKEVVRVWFCNRRQKEKR [L32N] here?
A: -0.785 ± 0.32

Q: Which abundance fitness does the source give for KKRTSIEVSVKGVLETHFLKCPKPAAQEIGSLADSLQLEKEVVRVWFCNRRQKEKR [S30G] here?
A: -0.209 ± 0.13

Q: With KKRTSIEVSVKGVLETHFLKCPKPAAQEISSLADSLQLEKEVVRVWFCNRCQKEKR [R51C] as the variant, how does the abundance fitness read?
A: -0.506 ± 0.24

Reference: the Human Domainome abundance scans (Beltran et al. 2025)
